Assay: soluble on expression in E. coli; label from the status in PepcDB or PDB records

Row | Sequence | soluble on expression in E. coli
1 | MKSRAAVAFAPGKPLEIVEIDVAPPKKGEVLIKVTHTGVCHTDAFTLSGDDPEGVFPVVLGHEGAGVVVEVGEGVTSVKPGDHVIPLYTAECGECEFCRSGKTNLCVAVRETQGKGLMPDGTTRFSYNGQPLYHYMGCSTFSEYTVVAEVSLAKINPEANHEHVCLLGCGVTTGIGAVHNTAKVQPGDSVAVFGLGAIGLAVVQGARQAKAGRIIAIDTNPKKFDLARRFGATDCINPNDYDKPIKDVLLDINKWGIDHTFECIGNVNVMRAALESAHRGWGQSVIIGVAVAGQEISTRPFQLVTGRVWKGSAFGGVKGRSQLPGMVEDAMKGDIDLEPFVTHTMSLDEINDAFDLMHEGKSIRTVIRY | soluble
2 | MSLKHGRTRLIGLIIADITNPYSVNVMSGIEAACREKGFTLLVCNTNNELDQELHYLDLLRSYQVEGIVVNAVGMREDGLNRLQQSALPMVLIDRKIPDFACDVVGLDNAQAATTATEHLVEKGFEAILFLSEPLGSVNTRRERLSAFRATLARHHGVVAENAEVQLNDGAMLDNVLRQFHARHRGMRKAVISANGALTLQVARALKRVGLIWGSDIGLLGFDELEWAELAGVGITTLKQPTWQIGYAAVEQVIRRIAGTNDPIRERVFSGELIVRGSTSREGHHHHHH | soluble
3 | MSLTPEKLPLHVLLAEDSVVNQKVALSMLGKLGCFPDVAANGREAIDAMRQKRYDLVFMDCQMPEIDGYEVTRRIRKDHSLLCSPDIPVVAMTANAMKGDREKCIDAGMDDFMAKPLKKSDFQAIFERYFPGLFVRESSKEAGAGALTTDDVFLIDDVLFRLQNDREIILIIIGQFLLEAALQITELQAAAAEHDTERVRILSHTIKGAAATVGGQELSRCAAIIEQGAKSGDLTGIDEHLRDLNASYLRFKERVEASGWCEEGGEGHHHHHH | soluble
4 | MKTRSEVFQFEKELKWEHPAPGIRRQIMGYDGQLMMVKVEFEKGAVGTLHEHYHSQATYVASGKFELTIGDRKEILSTGDGYYVAPDEPHGCVCLEAGVLIDTFSPMRADFLE | not soluble
5 | MGSDKIHHHHHHMGCKSVYADSCWISSPTLNFGSVNTQQVSSKTDLDVTCNQYNNVKTSFNLCFYIEDNSPLGINPRRLISLSWPFDYLNYDLYYDPSFSRMIDNKAAPNNLLCKSLQIENNGQQTVQIPIYGKVYANQNVKADNYQSYNMTVKLLYKSKTGDVVPSVEETLAQQNMVQNYMKTTTKFENSCAVVGVNTLDFGSIISLNQPIYGQTSIQLKCPTNTALKVGLDTGLYASGTQRRMTNAGQFIQYDLYQDSAYSIAWGTSDNSVLKLDTYQPVFTIPVYGRILPQNQNLKAGEYRDTITIKLTY | not soluble
6 | AQVPASGKLLVDPRYSTNDQEESILQDIITRFPNVVLMKQTAQLRAMMTIIRDKETPKEEFVFYADRLIRLLIEEALNELPFQKKEVTTPLDVSYHGVSFYSKICGVSIVRAGESMESGLRAVCRGVRIGKILIQRDETTAEPKLIYEKLPADIRERWVMLLDPMCATAGSVCKAIEVLLRLGVKEERIIFVNILAAPQGIERVFKEYPKVRMVTAAVDICLNSRYYIVPGIGDFGDRYFGTM | soluble
7 | GPGSMPAKKKEVKVDEPLFVDEEGSYVHEAEGARYKGGVRRYAPPGGTDAGGTAAPPAKNSRSRSTSSPGKGGATPPPSAAAGAAASMAVVSDAPVFRHGRGVYTCPSFTYAGDWVEDEMHGSGQLTFVESGNIYEGEFSHGCFSGQGTYQWRDGALYCGQWRSNRMHGEGIYTDVQGHVWKGRYYNGTGPGLIRLYPTLERVDDAGPSSPGPDATNAAATVANS | soluble
8 | MGSDKIHHHHHHMTKLPATSDIYISFFMFTTNLQPDNLDYRRIVVAHIKKLQRFGYSGFEFPIAPGLPENYAQDLENYTNLRHYLDSEGLENVKISTNVGATRTFDPSSNYPEQRQEALEYLKSRVDITAALGGEIMMGPIVIPYGVFPTTDFNEPIWSDELQEHLKVRYANAQPILDKLGEYAEIKKVKLAIEPITHWETPGPNKLSQLIEFLKGVKSKQVGVVIDSAHEILDGEGPEIFKTQVEYLAQQGRLHYVQVSPPDRGALHTSWLPWKSFLTPIVKVYDGPIAVEIFNAIPAFTNSLRLTRRKFWIPDEDPPNQYPNAYDIADEAIKVTRKELKKIGSK | not soluble
9 | GSPIPHHDEKTWNVGSSNRNKAENLLRGKRDGTFLVRESSKQGCYACSVVVDGEVKHCVINKTATGYGFAEPYNLYSSLKELVLHYQHTSLVQHNDSLNVTLAYPVYAQQRR | soluble
10 | HHHHHHQVQLVQSGAEVKKPGASVKVSCQASGYRFSHFTVHWVRQAPGQRFEWMGWINPYNGNKEFSAKFQDRVTFTADTSANTAYMELRSLRSADTAVYYCARVGEWGWDDSPYDNYYMDVWGKGTTVIVSSGGGGSGGGGSGGGGSEIVLTQAPGTLSLSPGERATFSCRSSHSIRSRRVAWYQHKPGQAPRLVIHGVSNRASGISDRFSGSGSGTDFTLTITRVEPEDFALYYCQVYGASSYTFGQGTKLERK | soluble
11 | SGGGGKAWPTHVVCSDSGLEVLYQSCDPLQDFGFSVEKCSKQLKSNINIRFGIILREDIKELFLDLALMSQGSSVLNFSYPICEAALPKFSFCGRRKGEQIYYAGPVNNPEFTIPQGEYQVLLELYTEKRSTVACANATIMCS | soluble
12 | GTSPIQTPINTMSQQYTLPPLPYPYDALQPYISQQIMELHHKKHHQTYVNGLNAALEAQKKAAEATDVPKLVSVQQAIKFNGGGHINHSLFWKNLAPEKSGGGKIDQAPVLKAAIEQRWGSFDKFKDAFNTTLLGIQGSGWGWLVTDGPKGKLDITTTHDQDPVTGAAPVFGVDMWEHAYYLQYLNDKASYAKGIWNVINWAEAENRYIAGDKGGHPFMKL | soluble
13 | MGSDKIHHHHHHMLSGSTQLMPSTVGLASAHLQYSASFFPTTAVYSLLFPDKSIIIGTVALGYAQTRPQDLPVTHILTKGNRTFKLSIASTPEQLEKGLKFRSSLNGDSGMLFNLGGEIYNVPFWMYKVNFPLDIFYLKDNVVTTAVYNAKPCYKNPCPIYKGKVANQVLELATGTANIKVGDRLNIQPLSSAKE | not soluble
14 | TKTTTQGAKSGVFDTVDEAVQAAVIAQNCYKEKSLEERRNVVKAIREALYPEIETIATRAVAETGMGNVTDKILKNTLAIEKTPGVEDLYTEVATGDNGMTLYELSPYGVIGAVAPSTNPTETLICNSIGMLAAGNAVFYSPHPGAKNISLWLIEKLNTIVRDSCGIDNLIVTVAKPSIQAAQEMMNHPKVPLLVITGGPGVVLQAMQSGKKVIGAGAGNPPSIVDETANIEKAAADIVDGASFDHNILCIAE | not soluble
15 | MSLRITGPYQSFARYETALLGFLSHASGMATAALAARRAAPDSHLLSFGARHVHPSIAAVVERAALIGGFDGFSHVAAGDVLDREPGGTMPHALVICFGRGNQEAAWRAFTDGVGDDVPRIALCDTYSDEKDEVLRAVDELGDDLDAVRLDTTSSRRGDFRHIAREVQWALDAGGNSDVSVFVSGGLTPTDLRGLRDVVDGFGVGGFVSNATPVDFGLDIVEVAGEPAAKRGKLSGTKAVYRTPDGGHHVALASQPAPADATALLEPLLVDGTVSMAFDIDDAAARARQDARAVSFRQEGHHHHHH | soluble
16 | MKPRKQDEKILSDQYSYFEPIISDSCDIKFDGDKRRIGSIFISHEEICFIRKEEDYIFKISLSDVVDYNTVVTIWKNQASLTLNDNRKITFYFVTNSPLTGFISILKTYMQLSRNKETIIPDDNLLINDDDEQTKVEIFDVVGLNYEGRRKELKKLIKKMKTNDAFFFLYSDLKGNELKEELLYEDKVYEIPDYEVIPGVFLQKEPDNPYDENAIKVMISNEYSEFHVGYVPREYASRLVNYIEDTVSCNAYINGGKYKTLDYLEEKIVTKESDYGLRIHVEYKVLEHHHHHH | soluble
17 | MGSDKIHHHHHHMTDARDLTLPTGYIDLLGELKNRVRAARTRALRTVNTQLIELYWSIGQDVSAQQEHQGWGSGVIKRLADDLRAEFPEMKGFSARNVQYMTTFARAWNGGAIAQQPVAQLPWGHVTVLLDKLADQEKRDWYASEAVEYGWSRNVLMNMIMNKSLERTGSAPSNFAQHLVAQDSELAQQAAKDPYSFEFLGLSGEVAERDLEQALMDRITETLREMGPGFAFVGRQVHFDVGGDDFYIDLLFFHVEQLRYYVVELKTGKFQPEYAGKLNSYIALVDDRLRRETHADTVGILICGSKNDHTVRYSLGRATSPMAVASYTYDALPADVRDELPDADRLTAALDWTED | not soluble

From the DeepSol protein solubility set
